In the supplement of paper PMC10567573:

B1: PTPN9 (parent)
chain: ILFSLPPALDWDSVHVPGPHAMTI
B2: ZNF207 (parent)
chain: FQPQPVQPQQGYIPPMAQPGLPPV

Variants of: B1
Experiment: protein stability index of a GFP-peptide fusion (GPS, HEK-293T) (PSI 1-6); higher = more stable
Conditions: c terminus: a fixed tail appended
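Further: lentivirally expressed fusions sorted by FACS into six bins by GFP to DsRed ratio, PSI derived from sequencing read proportions per bin multiplied by bin number.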

Protein stability index: each site, then its substitutions
V16: K 2.54; I 3.19; F 2.42; Q 1.81; W 2.95; R 2.68; C 3.24; H 2.2; L 2.68; M 3.21; T 3.33; N 1.74; G 1.99; A 1.93; E 1.38; S 3.71; D 2.27
G18: E 2.12; N 2.76; M 2.48; S 2.4; R 2.19; Q 3.62; K 1.61; C 1.85; D 1.85; I 3.29; W 3.41; V 2.36; L 4.77; H 2.69; A 3.84
V14: E 1.95; R 2.75; T 2.38; Y 2.26; H 2.43; F 4.29; N 2.41; K 1.66; L 3.32; I 2.09; D 1.5; G 2.1; M 3.43; S 2.17; Q 2.57; C 2.02
P17: W 4.48; S 2.82; C 1.49; I 2.67; L 2.79; D 2.21; E 2.47; H 1.42; K 2.49; F 3.17; M 3.11; A 2.78; G 1.94; T 2.02; Q 2.94; R 2.87; N 2.71
S13: T 2.42; D 2.79; R 3.77; N 1.81; L 2.65; Y 3.24; I 3.25; V 2.03; A 1.88; M 2.1; G 2.02; P 2.4; Q 2.06; K 2.36
I24: K 2.06; N 1.71; D 1.83; S 1.57; G 2.29; Y 1.73; M 2.69; W 3.21; T 1.97; V 2.31; H 1.63; F 3.71; P 1.85; A 1.55; L 1.99; Q 2.71; R 1.71; C 2.43; E 1.69
M22: I 2.93; V 2.64; P 1.77; G 1.67; R 1.86; W 3.35; Q 2.04; A 2.35; E 2.55; N 1.39; K 1.39; T 1.75; D 1.91; L 2.77; H 1.24; F 1.73; S 1.82
T23: D 2.6; H 1.88; F 2.25; Q 2.73; W 2.7; C 3.21; G 3.89; P 1.2; I 2.96; S 2.4; L 1.76; V 4.05; M 4.43; N 3.27; Y 2.69; R 3.03; A 1.49; K 2.87; E 2.33
H15: I 2.88; D 2.08; P 3.2; S 1.85; Y 3.15; A 3.31; F 2.99; E 2; Q 1.81; L 4.13; K 2.48; C 2.36; T 2.94; G 2.83; V 3.57; R 1.44
D12: H 2.07; W 2.79; M 2.88; S 3.29; Q 1.88; G 1.97; N 2.5; C 2.75; I 4.7; P 4.93; T 2.37; A 3.66
H20: K 2.76; A 2.01; T 2.16; Q 2.31; P 1.82; D 2.29; Y 3.11; M 2.88; R 2.12; F 3.16; S 2.48; C 2.58; G 2.69; N 2.59; L 2.79; E 1.59; I 2.93
W11: S 1.9; M 2.73; L 2.72; N 2.26; Q 2.27; P 2.41; T 2.23; V 2.38; Y 3.05; R 2.11
P19: Y 3.1; G 2.97; H 2.46; N 2.89; E 2.35; V 3.51; F 3.89; D 2.1; T 1.89; W 2.19; C 2.95; R 2.65; M 2.77; K 2.02; Q 2.55; I 2.37; L 2.44; A 2.77; S 2.48
A21: M 2.59; Q 2.63; Y 3.24; S 3.61; W 1.23; N 1.75; V 4.21; H 2.88; P 2.84; D 2.71; K 3.13; E 2.64; L 2.86; I 3.19; G 2.96; C 3.09; T 2.35; R 1.86

Variants of: B2
Experiment: as above
Conditions: c terminus: a fixed tail appended

Protein stability index: each site, then its substitutions
Q7: E 2.98; H 2.82; G 2.78; I 3.29; F 2.72; C 2.88; K 3.04; D 3.26
P5: V 2.57; R 2.58; M 2.61; W 1.62; L 2.88; K 3.17; D 3.18; A 3.22; S 3.18; F 2.33; N 2.8; G 3.45; T 2.62; Q 2.99; E 3.62; I 2.63; C 2.29; Y 2.59; H 3.15
Q2: F 3.18; N 3.66; M 3.13; I 1.9; C 2.18; R 3.46; W 2.54; L 3.49; D 4.03; V 2.51; Y 2.92; S 3.16; E 3.98; K 3.54; G 3.61
P3: A 3.48; S 3.73; R 3.25; Y 3.13; L 3.2; K 3.04; Q 3.31; W 2.26; M 3.38; E 3.94; N 3.55; T 3.95; H 3.8; F 2.49; G 3.8; D 3.62; I 2.67; V 3.52; C 3.47
V6: D 3.26; Y 2.75; N 2.86; R 2.92; F 2.19; M 2.71; I 2.96; G 3.1; W 2.62; E 3.61; L 3.06; S 3.19; C 2.89; K 3.08
F1: L 4.03; R 4; S 4.38; D 4.47; N 4.33; A 4.29; W 3.26; H 4.06; I 3.9; Y 3.61; Q 4.18; M 3.9; E 4.36; T 3.5; K 4.37; C 3.07; G 4.37; V 3.91
Q4: W 1.81; I 2.31; C 3.01; R 2.78; K 2.92; Y 1.83; M 2.72; F 2.42; E 3.58; N 3.43; D 3.01; V 3.12; S 3.21; G 2.71; L 2.88
